From patent publication US20220098240A1 (FUJIFILM, published 2022)
Bridge positions count the residues as written; N and C are the ends. Square brackets hold non-standard residues; d marks the D form. Ends that are not written are not given here. COCH2 = acetyl group that carries the bridge; hCys = N[C@@H](CCS)C(=O)O; Orn = NCCC[C@H](N)C(=O)O; Dab = NCC[C@H](N)C(=O)O; Dap = NC[C@H](N)C(=O)O

How the values were obtained:
human integrin αvβ5 [1] = molecular target: T1, human integrin αvβ5 (human, UniProt P06756 31-992; P18084 24-719); test: SPR, Biacore 3000, peptide immobilised on CM5 chip, integrin 30-1000 nM flowed; grade C = dissociation constant more than 100 nM and 200 nM or less
T1 construct: soluble analyte in SPR at 30, 100, 300 and 1,000 nM in HEPES buffer with 5 mM magnesium chloride; heterodimer of an alpha and a beta chain
T1 sequence (P06756 31-992, chain 1 of 2): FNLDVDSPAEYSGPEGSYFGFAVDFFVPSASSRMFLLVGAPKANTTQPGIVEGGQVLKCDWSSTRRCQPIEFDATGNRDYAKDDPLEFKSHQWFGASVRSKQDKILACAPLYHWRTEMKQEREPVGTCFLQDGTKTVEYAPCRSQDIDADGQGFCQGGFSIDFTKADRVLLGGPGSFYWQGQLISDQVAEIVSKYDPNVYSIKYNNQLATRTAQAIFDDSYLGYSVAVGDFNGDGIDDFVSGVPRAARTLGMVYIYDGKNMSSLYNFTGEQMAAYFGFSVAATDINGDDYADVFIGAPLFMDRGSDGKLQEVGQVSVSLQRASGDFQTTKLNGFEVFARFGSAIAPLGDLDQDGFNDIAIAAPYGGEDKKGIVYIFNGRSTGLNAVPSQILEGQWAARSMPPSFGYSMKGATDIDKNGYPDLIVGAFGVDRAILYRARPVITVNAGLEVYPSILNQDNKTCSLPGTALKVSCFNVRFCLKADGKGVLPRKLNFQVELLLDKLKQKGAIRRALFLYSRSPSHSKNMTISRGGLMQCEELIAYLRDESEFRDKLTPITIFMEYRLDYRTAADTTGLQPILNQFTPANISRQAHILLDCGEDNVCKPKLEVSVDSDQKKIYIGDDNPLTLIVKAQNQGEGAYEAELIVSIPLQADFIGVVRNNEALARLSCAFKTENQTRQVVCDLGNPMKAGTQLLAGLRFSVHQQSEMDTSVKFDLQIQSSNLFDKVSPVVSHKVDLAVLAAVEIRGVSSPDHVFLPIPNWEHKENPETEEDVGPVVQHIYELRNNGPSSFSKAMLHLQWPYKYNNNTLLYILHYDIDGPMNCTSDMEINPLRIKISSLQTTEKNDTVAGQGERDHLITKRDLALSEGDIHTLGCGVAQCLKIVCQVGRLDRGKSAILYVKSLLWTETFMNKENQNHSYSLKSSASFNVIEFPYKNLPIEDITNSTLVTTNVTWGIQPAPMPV
T1 sequence (P18084 24-719, chain 2 of 2): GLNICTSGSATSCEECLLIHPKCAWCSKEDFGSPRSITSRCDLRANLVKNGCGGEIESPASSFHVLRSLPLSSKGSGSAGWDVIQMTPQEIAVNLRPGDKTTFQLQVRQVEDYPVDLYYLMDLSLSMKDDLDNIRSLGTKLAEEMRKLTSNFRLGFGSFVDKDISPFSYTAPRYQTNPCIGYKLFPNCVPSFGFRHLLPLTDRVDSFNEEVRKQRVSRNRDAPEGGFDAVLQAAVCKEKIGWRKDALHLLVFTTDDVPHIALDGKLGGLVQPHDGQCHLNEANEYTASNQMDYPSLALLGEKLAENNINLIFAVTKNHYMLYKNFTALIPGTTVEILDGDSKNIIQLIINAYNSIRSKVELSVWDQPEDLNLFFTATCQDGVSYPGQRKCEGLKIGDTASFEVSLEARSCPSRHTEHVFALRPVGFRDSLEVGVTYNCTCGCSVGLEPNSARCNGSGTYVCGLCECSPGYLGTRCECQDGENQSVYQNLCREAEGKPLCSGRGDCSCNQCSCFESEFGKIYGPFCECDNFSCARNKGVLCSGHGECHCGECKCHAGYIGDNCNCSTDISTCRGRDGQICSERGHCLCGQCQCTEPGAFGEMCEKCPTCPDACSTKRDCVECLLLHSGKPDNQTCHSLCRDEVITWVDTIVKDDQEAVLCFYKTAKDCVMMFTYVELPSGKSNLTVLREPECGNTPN
Protocol: (§1) However, only for the cyclic peptide 22, in which the number of lysine residues having an amino group as the immobilizing functional group was 1, the sample solution to be supplied to the sensor chip was set to 5,000 μL instead of 300 μL. Similarly, 70 μL of the mixed aqueous solution of 0.2 M EDC and 0.04 M NHS was added to another flow channel of the same sensor chip without immobilizing the sample, and then blocking treatment and washing treatment were carried out. Hereinafter, the obtained immobilization-treated sensor chip is referred to as an “immobilization-treated sensor chip A”.
(§2) After adding human integrin αvβ5 for 10 minutes at 25° C., which was diluted to 30 nM using a HEPES buffer solution to which magnesium chloride was added to 5 mM, in each flow channel of the immobilization-treated sensor chip A prepared in (1) above, the same HEPES buffer solution (containing 5 mM magnesium chloride) was allowed to flow as a running buffer for 30 minutes, and measurement was carried out with Biacore 3000.
Then, a regeneration treatment of removing human integrin αvβ5 was carried out by allowing a 0.5 M EDTA aqueous solution to flow through each flow channel for 10 minutes. Further, the above-described measurement process consisting of adding integrin for 10 minutes, allowing a running buffer to flow for 30 minutes, carrying out measurement with Biacore 3000, and carrying out regeneration treatment with 0.5 M EDTA aqueous solution was carried out in the same manner for 100 nM human integrin αvβ5, 300 nM human integrin αvβ5, and 1,000 nM human integrin αvβ5. Dissociation constant between the cyclic peptide and human integrin αvβ5 was calculated from the difference between the value measured by Biacore 3000 in the flow channel immobilized with the cyclic peptide and the value measured by Biacore 3000 in the flow channel unimmobilized with the cyclic peptide, in a case where each concentration of human integrin αvβ5 was allowed to flow, and the integrin binding property was evaluated according to the following evaluation standards. […]

human integrin αvβ5 [2] = molecular target: T1, human integrin αvβ5; test: SPR, Biacore 3000, peptide immobilised on CM5 chip, integrin 30-1000 nM flowed; grade B = dissociation constant more than 50 nM and 100 nM or less
Protocol: as §1, §2
Then, a regeneration treatment of removing human integrin αvβ5 was carried out by allowing a 0.5 M EDTA aqueous solution to flow through each flow channel for 10 minutes. Further, the above-described measurement process consisting of adding integrin for 10 minutes, allowing a running buffer to flow for 30 minutes, carrying out measurement with Biacore 3000, and carrying out regeneration treatment with 0.5 M EDTA aqueous solution was carried out in the same manner for 100 nM human integrin αvβ5, 300 nM human integrin αvβ5, and 1,000 nM human integrin αvβ5. Dissociation constant between the cyclic peptide and human integrin αvβ5 was calculated from the difference between the value measured by Biacore 3000 in the flow channel immobilized with the cyclic peptide and the value measured by Biacore 3000 in the flow channel unimmobilized with the cyclic peptide, in a case where each concentration of human integrin αvβ5 was allowed to flow, and the integrin binding property was evaluated according to the following evaluation standards. It is preferable that the evaluation result satisfies the evaluation standard A, B, or C.

{CH2CO}-I[hCys]RGDK(COCH2)FR[hCys]KKK (thioether 2-6, N-9) [Cyclic peptide 33]
dissociation constant (human integrin αvβ5 [1]): 100 to 200 nM

B1: Cyclic peptide 13 (peptide)
peptide: XXRGDXFCKKK
modifications: not fully specified; thioether: I1 alpha-NH2 through acetyl to C8; thioether: Dap(acetyl)2 to Hcy6
notes: bicyclic; all residues L; immobilised on CM5 chip through amino groups
dissociation constant (KD) (human integrin αvβ5 [2]): 50 to 100 nM

{CH2CO}-I[hCys]RGD[Orn](COCH2)F[hCys]KKK (thioether 2-6, N-8) [Cyclic peptide 9]
dissociation constant (KD) (human integrin αvβ5 [2]): 50 to 100 nM

B2: Cyclic peptide 6 (peptide)
peptide: {CH2CO}-ICRGD[Dap](COCH2)FCKKK
modifications: thioether 2-6 via Ac; thioether N-8
notes: as for B1
dissociation constant (KD) (human integrin αvβ5 [1]): 100 to 200 nM

B3: Cyclic peptide 7 (peptide)
peptide: {CH2CO}-I[hCys]RGD[Dab]F[hCys]KKK
modifications: thioether N-8; bridge 2-6; not fully specified (residue 6, bridges); printed as I- -RGD F-(Hcy)-KKK
dissociation constant (KD) (human integrin αvβ5 [2]): 50 to 100 nM

B4: Cyclic peptide 19 (peptide)
peptide: {CH2CO}-I[hCys]RGD[Dab](COCH2)FCKKK
modifications: thioether 2-6 via Ac; thioether N-8; not fully specified
notes: as for B1
dissociation constant (KD) (human integrin αvβ5 [2]): 50 to 100 nM

B5: Cyclic peptide 10 (peptide)
peptide: ICRGD[Orn]FCKKK
modifications: bridge N-8, 2-6; not fully specified (residue 6, N-terminus, bridges)
notes: as for B1
dissociation constant (KD) (human integrin αvβ5 [2]): 50 to 100 nM

{CH2CO}-I[Dab](COCH2)RGD[hCys]F[hCys]KKK (thioether 2-6, N-8) [Cyclic peptide 2]
dissociation constant (KD) (human integrin αvβ5 [1]): 100 to 200 nM
